This is an account of results in patent US20140011734A1 (Sanofi, published 2014).

First the molecules themselves.
B1: Cyclo[Nle-His-Asn-Leu-NH-(CH2)6-CO-Thr-Glu-Arg-Met-Ala] (peptide)
peptide: cyclo([Nle]HNL[Ahp]TERMA)
SMILES: CCCC[C@@H]1NC(=O)[C@H](C)NC(=O)[C@H](CCSC)NC(=O)[C@H](CCCNC(=N)N)NC(=O)[C@H](CCC(=O)O)NC(=O)[C@H]([C@@H](C)O)NC(=O)CCCCCCNC(=O)[C@H](CC(C)C)NC(=O)[C@H](CC(N)=O)NC(=O)[C@H](Cc2c[nH]cn2)NC1=O
B2: Cyclo[Leu-His-Asn-Leu-NH-(CH2)3-CO-Asn-Thr-Glu-Arg-Met-Ala] (peptide)
peptide: cyclo(LHNL[GABA]NTERMA)
SMILES: CSCC[C@@H]1NC(=O)[C@H](CCCNC(=N)N)NC(=O)[C@H](CCC(=O)O)NC(=O)[C@H]([C@@H](C)O)NC(=O)[C@H](CC(N)=O)NC(=O)CCCNC(=O)[C@H](CC(C)C)NC(=O)[C@H](CC(N)=O)NC(=O)[C@H](Cc2c[nH]cn2)NC(=O)[C@H](CC(C)C)NC(=O)[C@H](C)NC1=O
B3: Cyclo[Leu-His-Asn-Leu-NH-(CH2)2-CO-Ala-Thr-Glu-Arg-Met-Ala] (peptide)
peptide: cyclo(LHNL[βAla]ATERMA)
SMILES: CSCC[C@@H]1NC(=O)[C@H](CCCNC(=N)N)NC(=O)[C@H](CCC(=O)O)NC(=O)[C@H]([C@@H](C)O)NC(=O)[C@H](C)NC(=O)CCNC(=O)[C@H](CC(C)C)NC(=O)[C@H](CC(N)=O)NC(=O)[C@H](Cc2c[nH]cn2)NC(=O)[C@H](CC(C)C)NC(=O)[C@H](C)NC1=O
B4: Cyclo[Leu-His-Asn-Leu-NH-(CH2)6-CO-Thr-Glu-Dpr-Met-Ala] (peptide)
peptide: cyclo(LHNL[Ahp]TE[Dap]MA)
SMILES: CSCC[C@@H]1NC(=O)[C@H](CN)NC(=O)[C@H](CCC(=O)O)NC(=O)[C@H]([C@@H](C)O)NC(=O)CCCCCCNC(=O)[C@H](CC(C)C)NC(=O)[C@H](CC(N)=O)NC(=O)[C@H](Cc2c[nH]cn2)NC(=O)[C@H](CC(C)C)NC(=O)[C@H](C)NC1=O
B5: Cyclo[Leu-His-Asn-Leu-NH-X4-X3-X2-X1-CO-Thr-Glu-Arg-Met-Ala] of example 3 (peptide)
peptide: cyclo(LHNL[4‑aminomethylphenylacetic acid]TERMA)
SMILES: CSCC[C@@H]1NC(=O)[C@H](CCCNC(=N)N)NC(=O)[C@H](CCC(=O)O)NC(=O)[C@H]([C@@H](C)O)NC(=O)Cc2ccc(cc2)CNC(=O)[C@H](CC(C)C)NC(=O)[C@H](CC(N)=O)NC(=O)[C@H](Cc2c[nH]cn2)NC(=O)[C@H](CC(C)C)NC(=O)[C@H](C)NC1=O
B6: Cyclo[Chg-His-Asn-Leu-NH-(CH2)6-CO-Thr-Glu-Arg-Met-Ala] (peptide)
peptide: cyclo([Chg]HNL[Ahp]TERMA)
B7: Cyclo[Leu-D-His-Asn-Leu-NH-(CH2)6-CO-Thr-Glu-Arg-Met-Ala] (peptide)
peptide: cyclo(L[dH]NL[Ahp]TERMA)
SMILES: CSCC[C@@H]1NC(=O)[C@H](CCCNC(=N)N)NC(=O)[C@H](CCC(=O)O)NC(=O)[C@H]([C@@H](C)O)NC(=O)CCCCCCNC(=O)[C@H](CC(C)C)NC(=O)[C@H](CC(N)=O)NC(=O)[C@@H](Cc2c[nH]cn2)NC(=O)[C@H](CC(C)C)NC(=O)[C@H](C)NC1=O
B8: Cyclo[Ile-His-Asn-Leu-NH-(CH2)6-CO-Thr-Glu-Arg-Met-Ala] (peptide)
peptide: cyclo(IHNL[Ahp]TERMA)
SMILES: CC[C@H](C)[C@@H]1NC(=O)[C@H](C)NC(=O)[C@H](CCSC)NC(=O)[C@H](CCCNC(=N)N)NC(=O)[C@H](CCC(=O)O)NC(=O)[C@H]([C@@H](C)O)NC(=O)CCCCCCNC(=O)[C@H](CC(C)C)NC(=O)[C@H](CC(N)=O)NC(=O)[C@H](Cc2c[nH]cn2)NC1=O
B9: Cyclo[Leu-His-Asn-Leu-NH-(CH2)6-CO-Ser-Glu-Arg-Met-Ala] (peptide)
peptide: cyclo(LHNL[Ahp]SERMA)
SMILES: CSCC[C@@H]1NC(=O)[C@H](CCCNC(=N)N)NC(=O)[C@H](CCC(=O)O)NC(=O)[C@H](CO)NC(=O)CCCCCCNC(=O)[C@H](CC(C)C)NC(=O)[C@H](CC(N)=O)NC(=O)[C@H](Cc2c[nH]cn2)NC(=O)[C@H](CC(C)C)NC(=O)[C@H](C)NC1=O
B10: Cyclo[Leu-His-Asn-Leu-NH-(CH2)6-CO-Thr-Glu-Arg-Ile-Ala] (peptide)
peptide: cyclo(LHNL[Ahp]TERIA)
SMILES: CC[C@H](C)[C@@H]1NC(=O)[C@H](CCCNC(=N)N)NC(=O)[C@H](CCC(=O)O)NC(=O)[C@H]([C@@H](C)O)NC(=O)CCCCCCNC(=O)[C@H](CC(C)C)NC(=O)[C@H](CC(N)=O)NC(=O)[C@H](Cc2c[nH]cn2)NC(=O)[C@H](CC(C)C)NC(=O)[C@H](C)NC1=O
B11: Cyclo[Leu-His-Asn-Leu-NH-(CH2)6-CO-Thr-Glu-Lys-Met-Ala] (peptide)
peptide: cyclo(LHNL[Ahp]TEKMA)
SMILES: CSCC[C@@H]1NC(=O)[C@H](CCCCN)NC(=O)[C@H](CCC(=O)O)NC(=O)[C@H]([C@@H](C)O)NC(=O)CCCCCCNC(=O)[C@H](CC(C)C)NC(=O)[C@H](CC(N)=O)NC(=O)[C@H](Cc2c[nH]cn2)NC(=O)[C@H](CC(C)C)NC(=O)[C@H](C)NC1=O
B12: Cyclo[Leu-His-Asn-Leu-NH-(CH2)6-CO-Leu-Glu-Arg-Met-Ala] (peptide)
peptide: cyclo(LHNL[Ahp]LERMA)
SMILES: CSCC[C@@H]1NC(=O)[C@H](CCCNC(=N)N)NC(=O)[C@H](CCC(=O)O)NC(=O)[C@H](CC(C)C)NC(=O)CCCCCCNC(=O)[C@H](CC(C)C)NC(=O)[C@H](CC(N)=O)NC(=O)[C@H](Cc2c[nH]cn2)NC(=O)[C@H](CC(C)C)NC(=O)[C@H](C)NC1=O
B13: Cyclo[Leu-His-Asn-Leu-NH-(CH2)6-CO-Thr-Glu-Arg-Met-Arg] (peptide)
peptide: cyclo(LHNL[Ahp]TERMR)
SMILES: CSCC[C@@H]1NC(=O)[C@H](CCCNC(=N)N)NC(=O)[C@H](CCC(=O)O)NC(=O)[C@H]([C@@H](C)O)NC(=O)CCCCCCNC(=O)[C@H](CC(C)C)NC(=O)[C@H](CC(N)=O)NC(=O)[C@H](Cc2c[nH]cn2)NC(=O)[C@H](CC(C)C)NC(=O)[C@H](CCCNC(=N)N)NC1=O
B14: Cyclo[Leu-His-Asn-Leu-NH-(CH2)6-CO-Asp-Glu-Arg-Met-Ala] (peptide)
peptide: cyclo(LHNL[Ahp]DERMA)
SMILES: CSCC[C@@H]1NC(=O)[C@H](CCCNC(=N)N)NC(=O)[C@H](CCC(=O)O)NC(=O)[C@H](CC(=O)O)NC(=O)CCCCCCNC(=O)[C@H](CC(C)C)NC(=O)[C@H](CC(N)=O)NC(=O)[C@H](Cc2c[nH]cn2)NC(=O)[C@H](CC(C)C)NC(=O)[C@H](C)NC1=O
B15: Cyclo[Leu-His-Asn-Leu-NH-(CH2)6-CO-His-Glu-Arg-Met-Ala] (peptide)
peptide: cyclo(LHNL[Ahp]HERMA)
SMILES: CSCC[C@@H]1NC(=O)[C@H](CCCNC(=N)N)NC(=O)[C@H](CCC(=O)O)NC(=O)[C@H](Cc2c[nH]cn2)NC(=O)CCCCCCNC(=O)[C@H](CC(C)C)NC(=O)[C@H](CC(N)=O)NC(=O)[C@H](Cc2c[nH]cn2)NC(=O)[C@H](CC(C)C)NC(=O)[C@H](C)NC1=O
B16: Cyclo[Leu-His-Asn-Leu-NH-(CH2)6-CO-Thr-Glu-Arg-Met-Gln] (peptide)
peptide: cyclo(LHNL[Ahp]TERMQ)
SMILES: CSCC[C@@H]1NC(=O)[C@H](CCCNC(=N)N)NC(=O)[C@H](CCC(=O)O)NC(=O)[C@H]([C@@H](C)O)NC(=O)CCCCCCNC(=O)[C@H](CC(C)C)NC(=O)[C@H](CC(N)=O)NC(=O)[C@H](Cc2c[nH]cn2)NC(=O)[C@H](CC(C)C)NC(=O)[C@H](CCC(N)=O)NC1=O
B17: Cyclo[Leu-His-Asn-Leu-NH-(CH2)6-CO-Thr-Glu-Arg-Met-Nva] (peptide)
peptide: cyclo(LHNL[Ahp]TERM[Nva])
SMILES: CCC[C@@H]1NC(=O)[C@H](CCSC)NC(=O)[C@H](CCCNC(=N)N)NC(=O)[C@H](CCC(=O)O)NC(=O)[C@H]([C@@H](C)O)NC(=O)CCCCCCNC(=O)[C@H](CC(C)C)NC(=O)[C@H](CC(N)=O)NC(=O)[C@H](Cc2c[nH]cn2)NC(=O)[C@H](CC(C)C)NC1=O
B18: Cyclo[Leu-His-Asn-Leu-NH-(CH2)5-CO-Thr-Glu-Arg-Met-Ala] (peptide)
peptide: cyclo(LHNL[Ahx]TERMA)
SMILES: CSCC[C@@H]1NC(=O)[C@H](CCCNC(=N)N)NC(=O)[C@H](CCC(=O)O)NC(=O)[C@H]([C@@H](C)O)NC(=O)CCCCCNC(=O)[C@H](CC(C)C)NC(=O)[C@H](CC(N)=O)NC(=O)[C@H](Cc2c[nH]cn2)NC(=O)[C@H](CC(C)C)NC(=O)[C@H](C)NC1=O

Starred links: 1 amine or outer side, 2 acyl side, 3 side chain; linkers in the order of their positions; H or OH if unused. Non-standard residues stand in square brackets, D forms with d. 4‑aminomethylphenylacetic acid = (4-aminomethyl-phenyl)-acetic acid ring linker, O=C(Cc1ccc(CN[*:1])cc1)[*:2]; Chg = N[C@H](C(=O)O)C1CCCCC1; Nle = CCCC[C@H](N)C(=O)O; Nva = CCC[C@H](N)C(=O)O; Dap = NC[C@H](N)C(=O)O; Ahp = NCCCCCCC(=O)O; Ahx = NCCCCCC(=O)O; GABA = NCCCC(=O)O; βAla = NCCC(=O)O

The target of this assay is T1, blood platelet receptor glycoprotein Ib-IX-V complex (GPIb) (human, UniProt P07359 17-652; P13224 26-206; P14770 17-177; P40197 17-560).
T1 construct: whole, on cells; also called GPIb complex; GPIb receptor
T1 sequence (P07359 17-652, chain 1 of 4): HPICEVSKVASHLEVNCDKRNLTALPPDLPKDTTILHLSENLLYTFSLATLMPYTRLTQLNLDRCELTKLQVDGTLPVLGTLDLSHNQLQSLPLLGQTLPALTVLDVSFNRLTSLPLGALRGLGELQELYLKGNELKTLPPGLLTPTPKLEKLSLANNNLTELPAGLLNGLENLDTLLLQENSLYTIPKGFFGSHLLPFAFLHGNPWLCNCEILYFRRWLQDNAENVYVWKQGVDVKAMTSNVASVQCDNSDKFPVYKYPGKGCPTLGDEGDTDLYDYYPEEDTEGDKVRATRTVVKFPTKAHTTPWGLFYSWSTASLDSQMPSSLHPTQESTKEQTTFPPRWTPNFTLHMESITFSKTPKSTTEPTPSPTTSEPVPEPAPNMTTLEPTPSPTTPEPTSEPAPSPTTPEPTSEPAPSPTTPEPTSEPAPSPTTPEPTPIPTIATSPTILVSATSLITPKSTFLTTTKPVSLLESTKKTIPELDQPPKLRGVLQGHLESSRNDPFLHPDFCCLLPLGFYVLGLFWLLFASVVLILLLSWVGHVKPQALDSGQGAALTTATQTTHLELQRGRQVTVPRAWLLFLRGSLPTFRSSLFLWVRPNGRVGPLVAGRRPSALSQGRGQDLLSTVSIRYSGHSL
T1 sequence (P13224 26-206, chain 2 of 4): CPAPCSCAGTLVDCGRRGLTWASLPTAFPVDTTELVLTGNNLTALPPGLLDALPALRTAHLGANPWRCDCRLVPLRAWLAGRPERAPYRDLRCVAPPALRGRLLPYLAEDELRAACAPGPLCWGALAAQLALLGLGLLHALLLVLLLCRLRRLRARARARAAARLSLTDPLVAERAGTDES
T1 sequence (P14770 17-177, chain 3 of 4): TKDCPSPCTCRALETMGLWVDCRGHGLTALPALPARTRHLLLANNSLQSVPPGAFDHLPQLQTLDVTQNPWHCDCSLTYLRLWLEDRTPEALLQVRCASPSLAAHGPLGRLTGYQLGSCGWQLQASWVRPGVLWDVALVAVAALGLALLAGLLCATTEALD
T1 sequence (P40197 17-560, chain 4 of 4): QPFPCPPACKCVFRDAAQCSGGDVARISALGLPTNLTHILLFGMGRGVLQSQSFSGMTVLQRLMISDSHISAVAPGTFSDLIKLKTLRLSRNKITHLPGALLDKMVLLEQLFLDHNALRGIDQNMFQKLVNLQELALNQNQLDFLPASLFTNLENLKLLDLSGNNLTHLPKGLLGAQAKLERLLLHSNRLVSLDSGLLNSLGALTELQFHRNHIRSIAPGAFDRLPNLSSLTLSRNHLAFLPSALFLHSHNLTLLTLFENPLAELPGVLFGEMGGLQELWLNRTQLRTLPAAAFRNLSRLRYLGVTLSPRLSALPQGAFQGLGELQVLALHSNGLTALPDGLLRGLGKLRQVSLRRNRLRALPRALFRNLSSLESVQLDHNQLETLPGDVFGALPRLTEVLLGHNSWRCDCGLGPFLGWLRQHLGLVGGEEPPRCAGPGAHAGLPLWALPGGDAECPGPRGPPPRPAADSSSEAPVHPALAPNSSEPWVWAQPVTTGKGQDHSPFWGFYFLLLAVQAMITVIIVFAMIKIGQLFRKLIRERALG
Put plainly: inhibition of static adhesion of human platelets to coated vWF-A1; grade B = IC50 between 1 µM and 10 µM. As for the experimental part:
Platelet rich plasma was carefully transferred again to fresh containers, PGE1 (0.5 μg/ml, Sigma) was added and the suspension was allowed to rest for 5 min. This was followed by another centrifugation step for 15 min at 360 g. The supernatant was discarded and the cell pellets were carefully resuspended in tyrode buffer (NaCl, 137 mM (Sigma S-3014); KCl, 2.7 mM (Sigma P-9541); NaHCO₃,12 mM (Riedel deHaen 31437); NaH₂PO₄×2H₂O, 0.36 mM (Merck 6345); MgCl₂×6 H₂O, 1 mM (Sigma M-2670); Hepes, 10 mM (Sigma H-1016); glucose, 5.6 mM (Merck 8342); BSA, 0.1% (Sigma A7906)), and PGE1 (0.25 μg/ml) was added. After 5 min of resting the suspension was spun down for 15 min at 300 g. The supernatant was discarded and the pellets were carefully resuspended in TBS buffer (Tris-HCl, 50 mM (Fluka 93371); NaCl, 120 mM (Sigma S-3014); KCl, 2.7 mM (Sigma P-9541); CaCl₂, 0.05 mM (Sigma C-3306); MgCl₂×6 H₂O, 2 mM (Sigma M-2670); BSA, 0.1% (Sigma A7906); pH 7.4). The platelet count was adjusted to 2×10⁵ cells/μl, and the suspensions from individual donors were pooled at this stage. The platelets were allowed to rest for 30 min at room temperature before calcein AM (2.5 μM per 2×10⁵ cells/pi (Molecular Probes C-3099)) was added. This was followed by 15 min incubation in the dark. Cells were diluted to 5×10⁴ cells/μl and ReoPro (3 μg/ml (Centocor B. V., Leiden, N L)) was added, followed by a 10 min incubation period in the dark before adding the platelets to the assay plates.
96 well plates (Greiner hb, black, clear bottom, F, 655097) were coated with human recombinant vWF-A1 domain (1.5 μg/well, AA 475-706, expressed in E. coli) in Tris buffer (pH 7.4; Tris-HCl, 25 mM; NaCl, 150 mM) and incubated for 1 h at room temperature. After washing the wells 3× with TBS, blocking buffer (TBS with 5% BSA) was added followed by an incubation for 1 h. The wells were washed again 3× with TBS before 200 μl TBS were added to each well, preventing them from drying out. TBS was flicked out and serial dilutions of the test compound were added. The washed and calcein AM labeled thrombocytes were added to the wells (2.5×10⁶ cells/well). Following an adhesion period of 1.5 h in the dark the wells were washed 3× with TBS. Measurement of fluorescence per well was performed in a SpectraMax M5 reader (Molecular Devices). From the raw data % inhibition and IC₅₀ values were calculated.
For B1, the IC50 (commonly the concentration needed to halve the response being measured) was 1 to 10 µM.

Turning to B2, the half-inhibitory concentration (IC50) lay within 1 to 10 µM.

As for B3, the IC50 fell in the range of 1 to 10 µM.

In turn, B4 came in with an IC50 of 1 to 10 µM.

For the molecule B5, the IC50 is 1 to 10 µM.

Take B6: the 50% inhibitory concentration (IC50) was in the range of 1 to 10 µM.

Regarding B7, the half-maximal inhibitory concentration (IC50) lay in the range of 1 to 10 µM.

In the case of B8, the IC50 fell in the range of 1 to 10 µM.

Regarding B9, the 50% inhibitory concentration (IC50) was 1 to 10 µM.

As to B10, the IC50 is 1 to 10 µM.

Turning to B11, the IC50 lay within 1 to 10 µM.

Molecule B12 returned a half-inhibitory concentration (IC50) of 1 to 10 µM.

The molecule B13 yielded an IC50 of 1 to 10 µM.

On to B14, for which the IC50 lay within 1 to 10 µM.

In turn, B15 came in with an IC50 of 1 to 10 µM.

B16 registered an IC50 of 1 to 10 µM.

On to B17, for which the half-inhibitory concentration (IC50) was in the range of 1 to 10 µM.

As to B18, the concentration for half-maximal inhibition (IC50) was in the range of 1 to 10 µM.
